According to the Immune Epitope Database (IEDB):

Tests used:
HLA-A*26:01 = experiment: IEDB peptide-MHC binding, purified MHC/direct/fluorescence; filed as Kd, often an IC50 or EC50 that approximates it; ≥ and ≤ were set here for values at or beyond the usual limits of such assays
HLA-B*58:01 = experiment: as above
HLA-A*69:01 = experiment: as above
HLA-B*15:01 = experiment: as above
HLA-B*44:02 = experiment: as above
HLA-B*27:05 = experiment: as above
HLA-A*31:01 [1] = experiment: as above
HLA-B*08:01 = experiment: as above
HLA-A*11:01 = experiment: as above
HLA-B*07:02 [2] = experiment: as above
HLA-B*40:01 = experiment: as above
HLA-A*01:01 = experiment: as above
HLA-A*03:01 = experiment: as above
HLA-B*51:01 = experiment: IEDB peptide-MHC binding, purified MHC/competitive/radioactivity; filed as Kd, often an IC50 or EC50 that approximates it; ≥ and ≤ were set here for values at or beyond the usual limits of such assays
HLA-B*53:01 = experiment: as above
HLA-B*07:02 [3] = experiment: as above
HLA-B*35:01 = experiment: as above
HLA-B*54:01 = experiment: as above
HLA-A*02:06 = experiment: as above; conditions: source organism: Trypanosoma cruzi
HLA-A*02:03 = experiment: as above; conditions: source organism: Trypanosoma cruzi
HLA-A*02:02 = experiment: as above; conditions: source organism: Trypanosoma cruzi
HLA-A*02:01 [4] = experiment: as above
HLA-A*68:02 = experiment: as above; conditions: source organism: Trypanosoma cruzi
HLA-A*24:03 = experiment: IEDB peptide-MHC binding, purified MHC/direct/fluorescence; filed as Kd, often an IC50 or EC50 that approximates it; ≥ and ≤ were set here for values at or beyond the usual limits of such assays
HLA-B*46:01 [5] = experiment: IEDB peptide-MHC binding, purified MHC/competitive/fluorescence; filed as Kd, often an IC50 or EC50 that approximates it; ≥ and ≤ were set here for values at or beyond the usual limits of such assays
HLA-A*02:01 [6] = experiment: IEDB peptide-MHC binding, purified MHC/direct/fluorescence; filed as Kd, often an IC50 or EC50 that approximates it; ≥ and ≤ were set here for values at or beyond the usual limits of such assays
HLA-A*33:01 = experiment: IEDB peptide-MHC binding, purified MHC/competitive/radioactivity; filed as Kd, often an IC50 or EC50 that approximates it; ≥ and ≤ were set here for values at or beyond the usual limits of such assays; conditions: source organism: SARS coronavirus Tor2
HLA-A*68:01 = experiment: as above; conditions: source organism: SARS coronavirus Tor2
HLA-A*31:01 [7] = experiment: as above; conditions: source organism: SARS coronavirus Tor2
HLA-B*46:01 [8] = experiment: IEDB peptide-MHC binding, purified MHC/direct/fluorescence; filed as Kd, often an IC50 or EC50 that approximates it; ≥ and ≤ were set here for values at or beyond the usual limits of such assays
[9] = source organism: Giardia lamblia ATCC 50803
[10] = source organism: Vaccinia virus WR
[11] = source organism: Trypanosoma cruzi
[12] = source organism: Salmonella enterica subsp. enterica serovar Typhimurium
[13] = source organism: Vibrio cholerae
[14] = source organism: SARS coronavirus Tor2
[15] = source organism: Mammarenavirus lassaense

## DIIRAHPWF
HLA-A*26:01; [9]
  Kd: 286 nM
HLA-B*58:01; [9]
  Kd: ≥ 20000 nM
HLA-A*69:01; [9]
  Kd: ≥ 20000 nM
HLA-B*15:01; [9]
  Kd: 16600 nM
HLA-B*44:02; [9]
  Kd: ≥ 20000 nM
HLA-B*27:05; [9]
  Kd: ≥ 20000 nM
HLA-A*31:01 [1]; [9]
  Kd: ≥ 20000 nM
HLA-B*08:01; [9]
  Kd: 9920 nM
HLA-A*11:01; [9]
  Kd: ≥ 20000 nM
HLA-B*07:02 [2]; [9]
  Kd: ≥ 20000 nM
HLA-B*40:01; [9]
  Kd: ≥ 20000 nM
HLA-A*01:01; [9]
  Kd: ≥ 20000 nM
HLA-A*03:01; [9]
  Kd: 8160 nM

## MPTYKHLIMF
HLA-B*51:01; [10]
  Kd: 843 nM
HLA-B*53:01; [10]
  Kd: 18 nM
HLA-B*07:02 [3]; [10]
  Kd: 21.8 nM
HLA-B*35:01; [10]
  Kd: 20.6 nM
HLA-B*54:01; [10]
  Kd: 23.6 nM

## LLGLWGFAAA
HLA-A*02:06
  Kd: 49.4 nM
HLA-A*02:03
  Kd: 0.552 nM
HLA-A*02:02
  Kd: 28.8 nM
HLA-A*02:01 [4]; [11]
  Kd: 69.1 nM
HLA-A*68:02
  Kd: ≥ 125000 nM

## SYLQAIGIL
HLA-A*24:03; source organism: Listeria monocytogenes
  Kd: 1.1 nM

## IYKNKISDF
HLA-A*24:03; source organism: Cryptosporidium parvum
  Kd: 130 nM

## YQKKNASVY
HLA-B*46:01 [5]; source organism: Salmonella enterica subsp. enterica serovar Typhi
  Kd: 293 nM
HLA-B*15:01; [12]
  Kd: 330 nM
HLA-B*27:05; [12]
  Kd: 5060 nM

## AEIDRSFKP
HLA-A*26:01; [13]
  Kd: ≥ 20000 nM
HLA-B*58:01; [13]
  Kd: ≥ 20000 nM
HLA-A*69:01; [13]
  Kd: ≥ 20000 nM
HLA-B*15:01; [13]
  Kd: ≥ 20000 nM
HLA-B*44:02; [13]
  Kd: ≥ 20000 nM
HLA-B*27:05; [13]
  Kd: ≥ 20000 nM
HLA-A*31:01 [1]; [13]
  Kd: ≥ 20000 nM
HLA-B*08:01; [13]
  Kd: ≥ 20000 nM
HLA-A*11:01; [13]
  Kd: ≥ 20000 nM
HLA-B*07:02 [2]; [13]
  Kd: ≥ 20000 nM
HLA-B*40:01; [13]
  Kd: 1510 nM
HLA-A*02:01 [6]; [13]
  Kd: ≥ 20000 nM
HLA-A*01:01; [13]
  Kd: ≥ 20000 nM
HLA-A*03:01; [13]
  Kd: ≥ 20000 nM

## WPVTLACFVL
HLA-B*51:01; [14]
  Kd: 9.11 nM
HLA-B*53:01; [14]
  Kd: 73.8 nM
HLA-B*07:02 [3]; [14]
  Kd: 956 nM
HLA-B*35:01; [14]
  Kd: 71.5 nM
HLA-B*54:01; [14]
  Kd: 3560 nM

## LSRYVARL
HLA-A*02:01 [4]; source organism: Hepatitis B virus
  Kd: ≥ 50000 nM

## LLGLWGIAAS
HLA-A*02:06
  Kd: 9130 nM
HLA-A*02:03
  Kd: 680 nM
HLA-A*02:02
  Kd: 1580 nM
HLA-A*02:01 [4]; [11]
  Kd: 2500 nM
HLA-A*68:02
  Kd: ≥ 111000 nM

## YIFFASFYY
HLA-B*46:01 [5]; source organism: SARS-CoV1
  Kd: ≥ 20000 nM
HLA-A*26:01; source organism: SARS-CoV1
  Kd: 527 nM
HLA-B*58:01; source organism: SARS-CoV1
  Kd: 3120 nM
HLA-A*69:01; source organism: SARS-CoV1
  Kd: 738 nM
HLA-B*15:01; source organism: SARS-CoV1
  Kd: 3710 nM
HLA-A*02:01 [6]; source organism: SARS-CoV1
  Kd: 6820 nM
HLA-A*33:01
  Kd: 641 nM
HLA-A*68:01
  Kd: 1.7 nM
HLA-A*31:01 [7]
  Kd: 784 nM

## FPSIFSTEV
HLA-B*51:01; [15]
  Kd: 330 nM
HLA-B*53:01; [15]
  Kd: 57.3 nM
HLA-B*07:02 [3]; [15]
  Kd: 244 nM
HLA-B*35:01; [15]
  Kd: 97.7 nM
HLA-B*54:01; [15]
  Kd: 4.42 nM

## VIQLNRKSY
HLA-B*46:01 [8]; source organism: West Nile virus
  Kd: ≥ 20000 nM

## FPQAAPHGVV
HLA-B*51:01; [14]
  Kd: 159 nM
HLA-B*53:01; [14]
  Kd: 4140 nM
HLA-B*07:02 [3]; [14]
  Kd: 82.2 nM
HLA-B*35:01; [14]
  Kd: 1680 nM
HLA-B*54:01; [14]
  Kd: 15.8 nM

## NPLFHGGEPI
HLA-B*51:01; [10]
  Kd: 4460 nM
HLA-B*53:01; [10]
  Kd: 312 nM
HLA-B*07:02 [3]; [10]
  Kd: 8.02 nM
HLA-B*35:01; [10]
  Kd: 3550 nM
HLA-B*54:01; [10]
  Kd: 382 nM

## AQAVMEMTY
HLA-B*46:01 [8]; source organism: Yellow fever virus
  Kd: ≥ 20000 nM

## RILGAVAKV
HLA-A*02:01 [4]; source organism: Homo sapiens
  Kd: 91 nM
